# Source: the DeepSol protein solubility set
# Experiment: soluble on expression in E. coli; label from the status in PepcDB or PDB records
row,Sequence,soluble on expression in E. coli
1,MGSDKIHHHHHHVEGLIFQSSEFGTDEIYANMEEYIMQITRDNYSQYAQMVQQMFGKKASSNDPLAQCDYGNFSLRFKPVDINFTKPNWDTIMTKRDKPAMSEEEFDEAIKELARKEFATGKRDDDAYRKLCMQHGETVSPDRKAIYESSMKKTGGKMNAACMFWDSKGNKTLSYNPESRNWKAISTDEEFARARVFTSIYNDELARLKEEYGEKAKGNVSYSKIKVDISAERSKEKNNNEGNTIDLQI,not soluble
2,MGSDKIHHHHHHVEKFDLENFPVSESAKNMIASVSDGFYDNSYVGKWLYEVMGQEYDTAREIAEDILNQLFPETATWGLMYHEIKWGLPVRENLPYEERRQLIYRKRDYRAPMTPYRMEGYLKTATGFDVRIADINDPGDYGFVAPHPNVFKAYFMGEGTLASKRARAMLNELKQSHTMFTMNDRTEIVSDNRNLEEMNLKKIIFHIAESFWYSDLLDGRKPLDGSSLLYPYMRYNLMLGFKYMLGGFTTPTDADLQKVKFRAEQKTENDVKAGAIRIASDIIFWNTHLLDGSWDLDGSHRLDVTRGYQLGVAIVAMVACAYNKVTDSMKVRSTYGLRSSSDARAAIRSEFEADFWNTVYLDGKLLLDGNAMLEHRGGNKRLEAAVTHHMGIEREDMDVEAQVITKTRNYWFLDGSNALDGKKNLNSIYRKEYIQ,not soluble
3,MGSDKIHHHHHHVEPRSLRSRRSSSYYCGELIKADFSQRREFVMRNSLRRWKNEKLAQKLKKVFESKSVRVIYLPDIEMVVEEVHKLIPDGATVSSGGSVTLQETGVMDLLRSGKYEFLDRDSVSEDKERRKIMIKAFESDYYLCSANAITENGEILLLDGSGNRAAAVTFGPEKVIFVAGINKVVEDLDAGIKRIKSIAPMNAKRLNLHTPCATTGFCSDCSSEERICEMYSIIIDSRRRPWRYTIVLIGEELGL,not soluble
4,MGSDKIHHHHHHVIIESRIEKGKPVVGMETTVFVHGLPRKEAIELFRRAKEISREKGFQLAVIGILKGKIVAGMSEEELEAMMREGADKVGTREIPIVVAEGKNAATTVSATIFLSRRIGIEVVVTGGTGGVHPGRVDVSQDLTEMSSSRAVLVSSGIKSILDVEATFEMLETLEIPLVGFRTNEFPLFFSRKSGRRVPRIENVEEVLKIYESMKEMELEKTLMVLNPVPEEYEIPHDEIERLLEKIELEVEGKEVTPFLLKKLVEMTNGRTLKANLALLEENVKLAGEIAVKLKRS,soluble
5,MGSDKIHHHHHHVKEVKPKEDRVVLTKDQEKSLQIFCEWLEAPYSFKPFVMKGFAGSGKTYLSMKLLKKVDQLGLCWTVVAPTHKAVGVLREGLKNESIQPTWFPSTIHRLLRLKLKRQADIEICEKTDQTESSLENLGLVLIDEASMIDSKLLEITLECARCNSTRLVFVGDPAQLPPVGESTSSVFLMKRAVNTELREVVRHQGPVLKLAKVIRDGQIPCMQPPLVKVINSKKGNVGILDRTSWLERAKLALRLSSLEDDHDRARILCYTNRIVDNLVPHARRAIHGEMADQYQVLPGEVLISRKAVMVNASLNVDELGEEPDILISSNREMVVEDVIPNSFDLASLGIHQDFENPLPVIETQVAKVNCDQKEFSLRLMPQIGSKARKDLDLSLNELSNLARERGRKNSASTWKLFFFIRDSFASLGPASVLTIHRSQGSTFGEVFITSDAFWPKDLEFRRRLVYVAVSRASKGVWIVGDNKSKMNQALLEKLLMD,not soluble
6,MGSDKIHHHHHHVKFRVERDVLAEAVTWTARSLSPRPPVPVLSGLLLKAEAGTVSLSSFDYETSARLEIPADISVEGTILVSGRLLADICRSLPSAPVDVETDGNKVTLTCRRSSFHLATMPEAEYPPLPALPTISGTVPGDSFAQAVSQVIIAASKDDTLPILTGVRMEIEDDLITLLATDRYRLAMREVPWKPVTPGISTSALVKAKTLNEVAKTLGNSGDINLALADDDSRLIGFESGGRTTTSLLVDGDYPKIRSLFPDATPIHATVQTQELVEAVRRVSLVAERNTPVRLAFTDGQLHLDAGTGEDAQASEELEAQLTGDEITVAFNPHYLIEGLSVIETKFVRFSFTTAPKPAMITAQVDADGEDQDDYRYLVMPVRLPN,not soluble
7,MGSDKIHHHHHHVKIALDPTPFHHSHTLLEFPRVVADLGYKYMQMTPHADFIPFYNHPKADDELVGQLNKACKDVGIEIASVLPVLRWSGPDEDAREAAVRYWKRVIQITVDLGVSTINTEFSGRPEKAEESERAFYRSMEELLPIIEREGLDLLIDPHPDDFVEEGLAAIRVIRGLNSKNVGLVYVASHSFHMKNAPLDIMRAAGDKLRLVHVADTMNHHASHGLRYITNPPGNPVRVHQHLKIGDGDVNWEEFFGGLQEIGFLDREDTVMVSSVFAEDENAAEVSRYQLVTMNNYIATAR,not soluble
